No end group written: not given here.

The target of assay [1] is IXaPCEGF1:A2 subunit interaction. Kind of assay: A2 558-565 peptide inhibition of IXaPCEGF1:A2 subunit interaction (factor X activation, tenase system). Particulars: 100 nM IXaPCEGF1, 30 nM A2 subunit, 250 nM factor X, 25 μM PL (FIG. 5). Format: biochemical, human. As for the experimental part: (§1) Determination of the Apparent Kdpeptide of Binding of Each Factor IXa to the A2 558-565 Peptide.
(§2) The apparent Kd (termed Kdpeptide) for binding of each factor IXa to the A2 558-565 peptide was determined by its ability to inhibit the respective IXa:A2 subunit interaction as measured by reduction in the rate of factor X activation in the tenase system. The reaction mixtures for both IXaWT and IXaPCEGF1 contained 100 nM factor IXa, 30 nM A2 subunit, 250 nM factor X, and 25 μM PL in TBS/BSA, pH 7.5 with 5 mM CaCl2. The reaction mixture for IXaR333Q contained 300 nM factor IXa instead of 100 nM used for IXaWT or IXaPCEGF1; concentrations of other components were the same. The amount of factor Xa generated was determined by hydrolysis of S-2222. The IC50 values were obtained using Eq. 2. Here, y is the rate of factor Xa formation in the presence of a given concentration of the A2 558-565 peptide represented by x, and a is the maximum rate of factor Xa formation in the absence of the A2 peptide. Eq. 3 was then used to obtain the apparent Kdpeptide values. In this context, A is the concentration of IXaWT, IXaPCEGF1, or IXaR333Q, and EC50 is the apparent KdA2 for the respective IXa:A2 subunit interaction.

The target of assay [2] is T1, IXaR333Q:A2 subunit interaction (Homo sapiens, UniProt P00740, R379Q).
T1 construct: made in house
Nature of the assay: A2 558-565 peptide inhibition of IXaR333Q:A2 subunit interaction (factor X activation, tenase system). It counts as biochemical. As for the experimental part: as §1, §2

The test system of another assay is factor Xa generation. The conditions noted are these: Fay et al., 1994; Fay and Koshibu, 1998; cited from earlier work.
The target of assay [3] is factor IXaPCEGF1 (factor IXa replacement mutant in which the EGF1 domain is replaced by that of protein C) (human) (UniProt P04070). Nature of the assay: apparent Kdpeptide against that of WT.
For assay [4] the target is unchanged. Nature of the assay: calculated from apparent Kdpeptide, against WT.
For assay [5], the target named is T2, factor IXaR333Q (factor IXa point mutant in which Arg333 is replaced by Gln) (human, UniProt P00740 47-190; P00740 227-461, gamma-carboxyglutamic acid residues in the Gla domain (normal Gla content)).
T2 construct: R333 is c165 in chymotrypsin numbering; also called IXR333Q
Kind of assay: apparent Kdpeptide against that of WT. The source says:
Eq. 3 was then used to obtain the apparent Kdpeptide values.
(§3) The Cheng and Prusoff relationship (Cheng and Prusoff, 1973; Craig, 1993) was then used to obtain apparent Kdpeptide values for each factor IXa protein.

Assay [6] concerns the target factor IXaPCEGF1 (factor IXa replacement mutant in which the EGF1 domain is replaced by that of protein C) (human) (UniProt P04070). Nature of the assay: calculated from apparent Kdpeptide (RT ln Kd, 298 K).
In assay [7] the target is T2, factor IXaR333Q (factor IXa point …). Kind of assay: peptide inhibition of IXa:A2 interaction; factor Xa generation (FIG. 5). As to the method:
(§4) Factor Xa generation was determined by S-2222 hydrolysis, and the curves represent best fit to the IC₅₀ four-parameter logistic equation (Eq. 2).
(§5) The amount of factor Xa generated was determined by hydrolysis of S-2222. The IC₅₀ values were obtained using Eq. 2. […] Eq. 3 was then used to obtain the apparent Kdpeptide values.

Assay [8] deals with factor IXaPCEGF1 (factor IXa replacement mutant in which the EGF1 domain is replaced by that of protein C) (human) (UniProt P04070). Nature of the assay: peptide inhibition of IXaPCEGF1:A2 in tenase assay (FIG. 5); IC50 converted by Cheng-Prusoff; apparent Kdpeptide.
Assay [9] shares this target. Nature of the assay: peptide inhibition of IXaPCEGF1:A2 interaction; 100 nM IXa, 30 nM A2, 250 nM factor X; factor Xa generation (FIG. 5).
The target of assay [10] is T3, factor IXaWT (wild-type recombinant factor IX activated by factor XIa) (human, UniProt P00740 47-190; P00740 227-461, gamma-carboxyglutamic acid residues in the Gla domain (residues 1-40, 12 Gla; normal Gla content)).
T3 construct: Two-chain, disulfide-linked protease; also called IXWT
Kind of assay: peptide inhibition of IXaWT:A2 interaction; 100 nM IXa, 30 nM A2, 250 nM factor X; factor Xa generation (FIG. 5). As to the method:
as §4, §5

Assay [11] has as its target T3, factor IXaWT (wild-type recombinant …). Kind of assay: peptide inhibition of IXaWT:A2 in tenase assay (FIG. 5); IC50 converted by Cheng-Prusoff; apparent Kdpeptide. As to the method: as §5, §3
Assay [12] concerns the target T2, factor IXaR333Q (factor IXa point …). Kind of assay: peptide inhibition of IXaR333Q:A2 interaction; 300 nM IXa, 30 nM A2, 250 nM factor X; factor Xa generation (FIG. 5). As for the experimental part: as §4, §5
The target is the same in assay [13]. Nature of the assay: peptide inhibition of IXaR333Q:A2 in tenase assay (FIG. 5); IC50 converted by Cheng-Prusoff; apparent Kdpeptide. As to the method:
as §5

T2 sequence (P00740 47-190, change not shown, form in doubt, chain 1 of 2): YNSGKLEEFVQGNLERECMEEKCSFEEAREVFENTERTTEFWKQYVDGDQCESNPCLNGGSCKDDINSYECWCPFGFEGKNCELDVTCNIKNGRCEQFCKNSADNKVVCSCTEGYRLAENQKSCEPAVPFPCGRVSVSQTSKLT
T2 sequence (P00740 other isoform, or with tags, fused parts or gaps mutant, form in doubt, chain 2 of 2): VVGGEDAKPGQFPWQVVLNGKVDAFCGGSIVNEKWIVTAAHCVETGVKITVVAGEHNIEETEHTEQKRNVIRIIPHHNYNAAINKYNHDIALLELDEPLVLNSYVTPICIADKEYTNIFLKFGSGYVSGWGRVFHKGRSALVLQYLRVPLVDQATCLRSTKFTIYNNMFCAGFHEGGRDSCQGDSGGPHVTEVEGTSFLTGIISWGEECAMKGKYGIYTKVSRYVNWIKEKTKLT
T3 sequence (P00740 47-190, form in doubt, chain 1 of 2): as the sequence (P00740 47-190, change not shown, form in doubt, chain 1 of 2) above
T3 sequence (P00740 227-461, form in doubt, chain 2 of 2): as the sequence (P00740 other isoform, or with tags, fused parts or gaps mutant, form in doubt, chain 2 of 2) above, with Q153R counted along it
T1 sequence (P00740 47-191): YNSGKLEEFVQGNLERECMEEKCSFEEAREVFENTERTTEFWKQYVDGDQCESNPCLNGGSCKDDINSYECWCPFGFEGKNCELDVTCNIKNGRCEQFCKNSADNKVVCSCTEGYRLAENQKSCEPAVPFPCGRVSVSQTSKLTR
T1 sequence (P00740 227-461 R379Q): as the sequence (P00740 other isoform, or with tags, fused parts or gaps mutant, form in doubt, chain 2 of 2) above

Regarding SVDQRGNQ [A2 558-565 peptide], in assay [1], the IC50 (commonly the concentration needed to halve the response being measured) was approximately 8 µM. For the same molecule, the “Fold higher IC50 for IXaR333Q:A2 than for IXaWT or IXaPCEGF1” value in assay [2] is reported as approximately 9 fold. Also, the “Effect on factor Xa generation in purified systems” value in the assay with factor Xa generation was “inhibit factor Xa generation”.

With SVDQRGNQ [synthetic peptide corresponding to the A2 subunit residues 558-565 (Ser-Val-Asp-Gln-Arg-Gly-Asn-Gln)], the fold-change in apparent Kd (mutant/WT) turned out to be 1 fold in assay [3] and 15 fold in [5]. Also, the change in delta G° between the mutant and WT in assay [4] is 0 kcal/mol. The Gibbs free energy (delta G° peptide) in assay [6] was 7.36 kcal/mol. Besides, the “fold higher IC50 than for IXaWT or IXaPCEGF1” value in assay [7] is approximately 9 fold. For the same molecule, the Kd in [8] is 4 µM; in [11], 4 µM; in assay [13], 62 µM. Besides, the IC50 was 8 µM in [9], approximately 8 µM in [10] and approximately 70 µM in assay [12].

The record behind these values is US20040126856A1, “Factor ixa: factor Vllla interaction and methods therefor” (priority 2004, published 2004).
